{"source": "paper PMC6761512", "about": "“Trypanosoma cruzi Phosphomannomutase and Guanosine Diphosphate-Mannose Pyrophosphorylase Ligandability Assessment” (Antimicrobial Agents and Chemotherapy, 2019)", "key": {"[1]": {"substrate": "Nc1nc2c(ncn2[C@@H]2O[C@H](COP(=O)(O)OP(=O)(O)OP(=O)(O)O)[C@@H](O)[C@H]2O)c(=O)[nH]1", "experiment": "Km determination with the GDP-MP assay", "assay_type": "biochemical", "details": "other: GDP-MP substrates; mean of three independent replicates; pH 7.5", "description": "(§1) All enzyme and substrate solution dilutions were prepared in assay buffer comprising 25 mM Tris-HCl (pH 7.5), 150 mM NaCl, 4 mM MgCl2, 0.01% (vol/vol) Tween 20, and 1 mM dithiothreitol in ultrapure water. Biochemical assays were performed in a 50-μl final assay volume using clear 384-well assay microplates (Greiner, catalog no. 781101) at room temperature. Unless stated otherwise, all reagent concentrations are written as final biochemical assay concentrations, and DMSO or compounds were added to assay plates using Echo acoustic dispensers (Labcyte). Reagent addition for high-throughput screening assays was performed using an Xrd-384 liquid dispenser (FluidX, UK) and a BioFill Solo/Xrd-384 16 channel resin nozzle (2.00 to 200 μl) tubing cartridge (FluidX, catalog no. 34-1005-S). Biochemical reactions were terminated by addition of 50 μl of BIOMOL Green (Enzo Life Sciences, catalog no. BML-AK111-1000) reagent, after which absorbance was measured following a 30-min incubation at room temperature. Absorbance measurements were performed at 650 nm using a PHERAStar microplate reader (BMG Labtech, Germany), and the data are represented as relative absorbance units (RAU). Linear and nonlinear regression was performed using the SigmaPlot 12.5 software, unless stated otherwise. […]"}, "[2]": {"substrate": "O=P(O)(O)O[C@H]1O[C@H](CO)[C@@H](O)[C@H](O)[C@@H]1O", "experiment": "Km determination with the GDP-MP assay", "assay_type": "biochemical", "details": "other: GDP-MP substrates; mean of three independent replicates; pH 7.5", "description": "as §1"}, "[3]": {"substrate": "O=C[C@@H](O)[C@@H](O)[C@H](O)[C@H](O)COP(=O)(O)O", "experiment": "Km determination with the PMM-GDP-MP assay", "assay_type": "biochemical, Trypanosoma cruzi", "details": "other: PMM substrate and cofactor, mean of three independent replicates, pH 7.5", "description": "(§2) All enzyme and substrate solution dilutions were prepared in assay buffer comprising 25 mM Tris-HCl (pH 7.5), 150 mM NaCl, 4 mM MgCl2, 0.01% (vol/vol) Tween 20, and 1 mM dithiothreitol in ultrapure water. Biochemical assays were performed in a 50-μl final assay volume using clear 384-well assay microplates (Greiner, catalog no. 781101) at room temperature. Unless stated otherwise, all reagent concentrations are written as final biochemical assay concentrations, and DMSO or compounds were added to assay plates using Echo acoustic dispensers (Labcyte). Reagent addition for high-throughput screening assays was performed using an Xrd-384 liquid dispenser (FluidX, UK) and a BioFill Solo/Xrd-384 16 channel resin nozzle (2.00 to 200 μl) tubing cartridge (FluidX, catalog no. 34-1005-S). Biochemical reactions were terminated by addition of 50 μl of BIOMOL Green (Enzo Life Sciences, catalog no. BML-AK111-1000) reagent, after which absorbance was measured following a 30-min incubation at room temperature. Absorbance measurements were performed at 650 nm using a PHERAStar microplate reader (BMG Labtech, Germany), and the data are represented as relative absorbance units (RAU). Linear and nonlinear regression was performed using the SigmaPlot 12.5 software, unless stated otherwise.\n(§3) To measure the activity of the T. cruzi PMM enzyme, a PMM-GDP-MP biochemical assay system was used. […]"}, "[4]": {"substrate": "O=P(O)(O)OC[C@H]1O[C@H](OP(=O)(O)O)[C@H](O)[C@@H](O)[C@@H]1O", "experiment": "Km determination with the PMM-GDP-MP assay", "assay_type": "biochemical, Trypanosoma cruzi", "details": "other: PMM substrate and cofactor, mean of three independent replicates, pH 7.5", "description": "as §2, §3"}}}
{"protein": "T. cruzi GDP-MP enzyme (Trypanosoma cruzi strain CL Brener) (protein) MSEEKKSVANSKGMRAVILVGGYGTRLRPLTLTMPKPLVPFCNKPIIVHQVEALRDAGVTEVILAVAYRSDAMRKNMDYWSKELGVSFVFSLEEEPLGTAGPLALARDILLQDDQPFFVLNADITCRFPLRELLSFHQKSGKEGTIAVTKVTDWQKYGVVVFDEATGVIDQFVEKPKNFVGDRINAGIYVFNKSVLNRIKVEKTSIETQVFPQMASAKQLCAFILEGFWMDIGVPKDYIEGVGKYLRSLNGTPKESQEVYGFGQAHKTDDFTVIGSVIIDPSAKIGKGCVIGPFATIGPGCVIGPTSRIRNSAILDESTIGKGTLVDSSIIGWKSRVGSWCRVVNNTVLGEDVEVKDELFLNGIKVLPNKSILQSYHEPEVVM", "values": [{"measurement": "Km", "setting": "[1]", "value": 40.7, "unit": "µM"}, {"measurement": "Km", "setting": "[2]", "value": 13.3, "unit": "µM"}]}
{"protein": "T. cruzi PMM enzyme (Trypanosoma cruzi strain CL Brener) (protein) MKKVLLLFDIDGTLTPPRLSQPDEVREVIRRAKSAGFTVGTVGGSDLAKQIEQLGEDVFQQFDYVFAENGLLAYKHGKEIHRQNLLKELGNERIVKFVRRALRLLSELDIPVQRGTFIEYRNGMINVCPIGRNCTQSERDEFEVYDKEHHVREKLIKELQNSFPDYGLKYSIGGQISFDVFPVGWDKSYCLRFVENDFDEIHFFGDKTHAGGNDYEIYTDKRIIGHAVKSYKDTVDEVNKLISSK", "values": [{"measurement": "Km", "setting": "[3]", "value": 48.2, "unit": "µM"}, {"measurement": "Km", "setting": "[4]", "value": 7.8, "unit": "µM"}]}
